B1: NPM1 oligomerization domain (NPM1^OD, aa 1-122), tag cleaved (domain or fragment, UniProt P06748 1-122, looked up)
chain: MEDSMDMDMSPLRPQNYLFGCELKADKDYHFKVDNDENEHQLSLRTVSLGAGAKDELHIVEAEAMNYEGSPIKVTLATLKMSVQPTVSLGGFEITPPVVLRLKCGSGPVHISGQHLVAVEED
notes: source: E. coli (BL21(DE3), pLysS BL21(DE3), CodonPlusRIL or BL21(Rosetta)), purified
B2: NPM1 histone and RNA-binding domains (NPM1^HRBD, aa 120-294), tag cleaved (domain or fragment, UniProt P06748 120-294, looked up)
chain: EEDAESEDEEEEDVKLLSISGKRSAPGGGSKVPQKKVKLAADEDDDDDDEEDDDEDDDDDDFDDEEAEEKAPVKKSIRDTPAKNAQKSNQNGKDSKPSSTPRSKGQESFKKQEKTPKTPKGPSSVEDIKAKMQASIEKGGSLPKVEAKFINYVKNCFRMTDQEAIQDLWQWRKSL
notes: also called NPM^HRBD; source: E. coli (BL21(DE3), pLysS BL21(DE3), CodonPlusRIL or BL21(Rosetta)), purified
B3: HIV-1 Rev full-length (Rev^FL, aa 1-116), tag cleaved (natural protein)
chain: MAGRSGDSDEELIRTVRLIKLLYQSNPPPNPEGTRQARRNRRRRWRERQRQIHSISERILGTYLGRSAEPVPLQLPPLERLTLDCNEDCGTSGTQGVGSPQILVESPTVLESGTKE
B4: NPM1 histone binding domain (NPM1^HBD, aa 120-241), tag cleaved (domain or fragment, UniProt P06748 120-241, looked up)
chain: EEDAESEDEEEEDVKLLSISGKRSAPGGGSKVPQKKVKLAADEDDDDDDEEDDDEDDDDDDFDDEEAEEKAPVKKSIRDTPAKNAQKSNQNGKDSKPSSTPRSKGQESFKKQEKTPKTPKGP
notes: as for B1

Tests used:
[1] = target: HSV-1 US11 full-length (US11^FL, aa 1-152), tag-free (HSV-1) (UniProt P04487); test: SEC-MALS; aSEC (Superdex 200 10/300) with MALS/RI of NPM1^OD, US11^FL and their mixture, RNase A treated; 30 mM Tris-HCl pH 7.5, 150 mM NaCl, 5 mM MgCl2, 3 mM DTT
FITC-labelled CIGB-300 = test: fluorescence polarisation; increasing amounts of NPM1 variants, GST-Rev, GST-US11 or GST titrated into 0.1 uM FITC-labelled CIGB-300; 25 C; 30 mM Tris/HCl pH 7.5, 150 mM NaCl, 5 mM MgCl2, 1 mM TCEP; quadratic ligand binding equation
[2] = target: HSV-1 US11 full-length (US11^FL, aa 1-152), tag-free (HSV-1) (UniProt P04487); test: ITC; 1.2 mM NPM1^FL titrated into 60 uM US11^FL; both treated with RNase A; 25 C; apparent Kd; endothermic
[3] = target: the molecule itself; test: SEC-MALS; aSEC (Superdex 200 10/300) with MALS/RI of NPM1^OD, US11^FL and their mixture, RNase A treated; 30 mM Tris-HCl pH 7.5, 150 mM NaCl, 5 mM MgCl2, 3 mM DTT
[4] = target: B3; test: ITC; NPM1 variants titrated into Rev^FL (tags cleaved); 25 C; 30 mM Tris-HCl pH 7.5, 150 mM NaCl, 5 mM MgCl2, 1 mM TCEP; VP-ITC; conditions: both partners purified
[5] = target: B4; test: as above; conditions: both partners purified
[6] = target: B1; test: as above; conditions: both partners purified
[7] = target: B2; test: as above; conditions: both partners purified
[8] = target: T1, NPM1 full-length (NPM1^FL, aa 1-294), tag cleaved (UniProt P06748 1-294); test: as above; conditions: both partners purified
T1 construct: source: E. coli (BL21(DE3), pLysS BL21(DE3), CodonPlusRIL or BL21(Rosetta)), purified

Molecule	Kd (FITC-labelled CIGB-300) [µM]	dH [4] [kcal/mol]	stoichiometry N [4] [sites]	further results
NPM1 oligomerization domain (NPM1^OD, aa 1-122), tag cleaved (from UniProt P06748 1-122) (domain or fragment)	6.6			stoichiometry N (US11^FL monomer per NPM1^OD pentamer) [1]: 1
NPM1 full-length (NPM1^FL, aa 1-294), tag cleaved (from UniProt P06748 1-294) (natural protein)	1.4			Kd [2]: 4 µM
B1		-3.79 ± 0.11	0.94	stoichiometry N [3]: 5
B2		-3.23 ± 0.31	0.76	
B3				Kd [5]: 5.8 µM; Kd [6]: 0.013 µM; Kd [7]: 18 µM; Kd [8]: 0.41 µM
B4		-1.71 ± 0.2	0.85	

From article PMC4704560, “Biophysical Characterization of Nucleophosmin Interactions with Human Immunodeficiency Virus Rev and Herpes Simplex Virus US11” (PLoS ONE, 2015)
